# B1: JP2NT: shorter form of Junctophilin-2 including the first 565 amino acids of N-terminus of JP2 (protein, UniProt Q9BR39 1-565, looked up, fragment)
# chain: MSGGRFDFDDGGAYCGGWEGGKAHGHGLCTGPKGQGEYSGSWNFGFEVAGVYTWPSGNTFEGYWSQGKRHGLGIETKGRWLYKGEWTHGFKGRYGIRQSSSSGAKYEGTWNNGLQDGYGTETYADGGTYQGQFTNGMRHGYGVRQSVPYGMAVVVRSPLRTSLSSLRSEHSNGTVAPDSPASPASDGPALPSPAIPRGGFALSLLANAEAAARAPKGGGLFQRGALLGKLRRAESRTSVGSQRSRVSFLKSDLSSGASDAASTASLGEAAEGADEAAPFEADIDATTTETYMGEWKNDKRSGFGVSERSSGLRYEGEWLDNLRHGYGCTTLPDGHREEGKYRHNVLVKDTKRRMLQLKSNKVRQKVEHSVEGAQRAAAIARQKAEIAASRTSHAKAKAEAAEQAALAANQESNIARTLARELAPDFYQPGPEYQKRRLLQEILENSESLLEPPDRGAGAAGLPQPPRESPQLHERETPRPEGGSPSPAGTPPQPKRPRPGVSKDGLLSPGAWNGEPSGEGSRSVTPSEGAGRRSPARPATERMAIEALQAPPAPSREPEVALYQG
# modifications: GST or adenoviral forms
# notes: shorter form of Junctophilin-2 including the first 565 amino acids of N-terminus of JP2
# Key:
# RyR2 and Cav1.2 = experiment: Coimmunoprecipitation with E-C coupling channels; type: binding, mouse; settings: anti-HA immunoprecipitation
# From the text: FIGS. 5A-H. JP2 truncations are nonfunctional in regulating Ca^2+ transients. A) An antibody against the HA tag was used to reveal the localization of adenoviral expression of tagged full-length JP2 and truncations, as indicated, in adult wild-type cardiomyocytes. All the three version of JP2 can be localized in the striated pattern. B) Full-length JP2 and JP2(1-565) forms complexes with RyR2 and Cav1.2 In vivo. An antibody against HA was used for immunoprecipitation […]. The RyR2 and Cav1.2 that were pulled down were detected by Western blot analysis. […] IB, immunoblot. C) Adenovirus-mediated expression of full-length JP2, FLAG-JP2(1-565)-HA, and JP2(566-end)-HA in JP2-KD) cardiomyocytes. D) Representative steady-state Ca^2+ transients under 1-Hz field stimulation. The fluorescence intensity (F) of Ca^2+ imaging was normalized to the baseline (FO). The red lines overlapping on Ca^2+ imaging show the profile of the moment of Ca^2+ transient firing on the scanning line in a point-by-point way. A straighter line means better synchronization of the Ca^2+ transients. Note that expression of full-length JP2, but not JP2 truncations, improves the amplitude and synchronization of Ca^2+ transients. E-G) Summary of Ca^2+ transient amplitude, index of desynchronization (mean absolute deviation of firing time), and duration of 50% decay (T5) (n=68, 70, 70, and 52 for Ad-Empty, Ad-JP2, […], and Ad-JP2(566-end), respectively). Only full-length JP2 Improves the amplitude, synchronization, and decay of Ca^2+ transients. H) Summary of SR Ca^2+ content, which was assessed by caffeine-induced SR Ca^2+ release (n=17, 17, 17, and 12 for Ad-Empty, Ad-JP2, Ad-JP2(1-565), and Ad-JP2(566-end), respectively). **, p<0.01 versus indicated groups; N.S., not significant.
# Cleavage at the primary calpain proteolysis site (Arg-565/Thr-566) splits apart the C-terminal SR-binding TM domain and N-terminal plasma membrane-binding MORN domains of JP2. […]
# TATA box DNA sequences = experiment: Gel shift assay with TATA box sequences; type: binding; settings: GST-purified protein; cMyc or CMV promoter sequences
# From the text: FIGS. 11A-H. JP2NT is a TATA-box binding protein enriched at transcription start site (TSS) and interacts with basic transcription machinery. […] C) 293T cells were transfected with HA-tagged JP2NT, followed by crosslinking-reversal immunoprecipitation with anti-HA and immunoblotting with anti-polymerase II (Rpb1) or anti-TATA box binding protein (TBP). D-H) JP2NT binds to TATA box DNA sequences in vitro. D-E) Gel shift assays of GST-purified JP2NT binding to WT (D). or mutated TATA box-containing sequences (E) derived from the cMyc promoter. F) Summary of the results of gel shift assays with various of TATA box variants or mutants. Mutation of the core TATA sequences abolished the interaction with GST-JP2NT. G) Deletion of the ARR, but not the N-terminal MORN domains, eliminated JP2NT binding to the TATA box sequence. H) The peptide JP2^331-405 containing the ARR specifically binds to WT TATA box sequence.
# TBP specifically binds to TATA boxes, eukaryotic core cis-regulatory elements localized at transcription start site. […] This interaction was abrogated by mutation of the TATA box elements (FIGS. 11E&G and 17B). It was concluded that JP2NT is a DNA binding protein, binding to consensus TATA box represented as TATAA(A/T) or TATATA (FIG. 11F).
# [1] = test system: promoters of Myc, KLF6, TGFβR1 and NFKBIA; experiment: Promoter luciferase reporter assay; type: cell-based; settings: co-expression; vs empty vector control
# Protocol: Firefly and Renilla reporter plasmids and JP2NT variants were co-transfected into HEK293 cells. The protein of the cells was harvested 48 hours after transfection. Promega dual luciferase system was used to evaluate the luciferase activity.
# To further test whether JP2NT regulates transcription of these genes, luciferase reporters controlled by promoters of Myc, KLF6, TGFβR1 and NFKBIA were constructed.
# MEF2C = molecular target: T1, MEF2C (Homo sapiens, UniProt Q06413); experiment: Co-IP of Myc-tagged MEF2C and HA-tagged JP2NT in 293 cells; type: binding
# T1 construct: expressed in transfected cells; host or cells: 293 cells
# From the text: The MEF2 family, master regulators of hypertrophic genes in cardiomyocytes, binds to the A/T enriched consensus sequence (C/TTA(A/T)4TA G/A), which shares the same core sequence with TATA box. Thus, it was hypothesized that JP2NT directly interacts with MEF2 binding sites.
# [2] = test system: cultured adult murine cardiomyocytes; experiment: Affymetrix Genechip analysis of cultured cardiomyocytes; type: cell-based, mouse
# Protocol: Genecarrior-1 (Epoch Lab) was used to transfect plasmids into HEK293T cells. Isolation and culture of cardiomyocytes were performed as described previously (Guo et al., 2015). Adenoviruses were applied at a multiplicity of infection (MOI) of about 100, which results in transfection of almost all cells as confirmed by immunostaining of eptiope tags.
# Microarray assay was performed by Affymetrix GeneChip® Mouse Genome 430 2.0 according to the standard procedure of cRNA preparation and Genechip hybridization. The R package limma (version 3.22.7) (Ritchie et al., 2015) was used for processing microarray data and identifying differentially expressed genes (the cutoff of significance was p value<0.01). David (Huang et al., 2009) was used for gene enrichment (GO) analysis. Ingenuity pathway analysis (IPA, Qiagen) was used for pathway analysis.
# [3] = test system: cultured adult murine cardiomyocytes; experiment: RT-qPCR in cultured cardiomyocytes; type: cell-based, mouse; settings: compared with Ad-Empty infected cells
# Protocol: RNA of cultured cardiomyocytes was extracted using RNAeasy (Qiagene). Myocardium RNA was extracted using Trizol. Total RNA was treated with DNASE-I to eliminate genomic DNA and then cleaned using RNA cleanup Kit (Qiagene).
# Superscript II were used for Reverse Transcription of mRNA. A QUANT STUDIO 3 real-time PCR machine was used to run qPCR. The primers used in RT-PCR were: […]
# T1 sequence (Q06413 whole entry, species assumed): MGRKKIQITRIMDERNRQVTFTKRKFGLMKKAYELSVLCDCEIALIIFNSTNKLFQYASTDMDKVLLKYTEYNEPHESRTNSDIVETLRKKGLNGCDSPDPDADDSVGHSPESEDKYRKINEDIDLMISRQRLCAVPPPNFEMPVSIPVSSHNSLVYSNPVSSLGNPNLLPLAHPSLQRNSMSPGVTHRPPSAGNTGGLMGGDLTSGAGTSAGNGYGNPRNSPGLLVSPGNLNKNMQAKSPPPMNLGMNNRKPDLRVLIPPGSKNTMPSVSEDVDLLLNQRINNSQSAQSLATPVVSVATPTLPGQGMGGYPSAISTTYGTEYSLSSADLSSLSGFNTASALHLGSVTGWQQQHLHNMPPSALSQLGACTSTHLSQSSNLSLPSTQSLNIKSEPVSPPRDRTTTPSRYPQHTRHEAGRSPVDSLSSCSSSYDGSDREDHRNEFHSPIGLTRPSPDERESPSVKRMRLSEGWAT
molecule,measurement,setting,value
B1,interaction with RyR2 and Cav1.2,RyR2 and Cav1.2,interact
same,binding to TATA box,TATA box DNA sequences,directly binds
same,promoter activity (firefly luciferase),[1],significantly attenuated
same,interaction with MEF2C,MEF2C,interaction
same,differentially expressed genes mapped to genomic loci bound in ChIP-seq,[2],about 74%
same,"ERK/MAPK, NF-κB, TGF-β and integrin signaling pathways (Ingenuity Pathway Analysis)",[2]; IPA of differentially expressed genes,predicted to be inhibited
same,significantly induced known genes (p<0.01),[2]; vs Ad-Empty control,574 genes
same,significantly repressed known genes (p<0.01),[2]; vs Ad-Empty control,1996 genes
same,cardiac hypertrophy markers ANP and BNP (mRNA),[3],not altered
same,"mRNA levels of KLF4, KLF6, Myc, TGFβR1, NFKBIA, FOXO1, PI3KR1 et al",[3],significantly decreased

# From patent publication US11351270B2, “Junctophilin-2 fragments and uses therefor” (University of Iowa Research Foundation, priority 2016, dated 2022)
